Measurements taken from patent US20140044730A1 (Regeneron, published 2014).
Like-named read-outs stand apart in the source and are kept apart here.

What was measured:
[1] = target: T1, human PCSK9 with a C-terminal myc-myc-hexahistidine tag (human, UniProt Q8NBP7 31-692, limits assumed); assay: SPR 25C pH 7.2, mAb captured;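 further: biacore SPR, antibodies captured on anti-human Fc CM4 chip with PCSK9 flowed as analyte, rate constants from a one-to-one kinetic fit, KD and half-life derived from them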
T1 construct: also called hPCSK9-mmH; hPCSK9-mmh; not shown: C-terminal myc-myc-hexahistidine tag

[2] = target: T2, human PCSK9 with a C-terminal myc-myc hexahistidine tag and a D374Y mutation (human, UniProt Q8NBP7 31-692, limits assumed); assay: cell-based or functional assay
[3] = target: T3, recombinant cynomolgus monkey PCSK9 with a C-terminal myc-myc hexahistidine tag (cynomolgus monkey, UniProt A8T662 31-692 (Macaca nemestrina entry), limits assumed); assay: cell-based or functional assay
[4] = target: T1, human PCSK9 with a C-terminal …; assay: blocking ELISA pH 7.2, 500 pM hPCSK9-mmH vs coated hLDLR EGFA-hFc, exp #2
Excerpt: (§1) The equilibrated sample solutions were then transferred to the LDLR EGFA-hFc coated plate prepared as described above.

[5] = target: T1, human PCSK9 with a C-terminal …; assay: SPR 25C, mAb captured;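 further: biacore CM4 surface bearing anti-human Fc antibody capturing the mAbs, PCSK9 binding and release rates fitted with a one-to-one model, KD and half-life derived from those rates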
Description: (§2) A Biacore CM4 sensor chip was derivatized with a monoclonal mouse anti-human Fc antibody to capture human antibodies. The histidine substitution variant anti-PCSK9 antibodies were captured onto the anti-human Fc sensor surface from culture medium after transient expression in Chinese hamster ovary (CHO) cells. […] Kinetic association (kₐ) and dissociation (kd) rate constants were determined by processing and fitting the data to a 1:1 binding model using Scrubber 2.0 curve fitting software. Binding dissociation equilibrium constants (KD) and dissociative half-lives (t_{1/2}) were calculated from the kinetic rate constants as: KD (M)=kd/kₐ; and t_{1/2} (min)=(In2/(60*kd).

[6] = target: T1, human PCSK9 with a C-terminal …; assay: blocking ELISA pH 7.2, 500 pM hPCSK9-mmH vs coated hLDLR EGFA-hFc, exp #1
Excerpt: as §1

[7] = target: T1, human PCSK9 with a C-terminal …; assay: SPR 25C pH 5.75, mAb captured;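 further: biacore surface with anti-human Fc antibody capturing the antibodies, PCSK9 as analyte, one-to-one kinetic fit, KD as kd over ka, half-life derived from kd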
Description: as §2

[8] = target: T2, human PCSK9 with a C-terminal myc-myc …; assay: cell-based or functional assay; remark: listed apart in the source
[9] = target: T3, recombinant cynomolgus monkey PCSK9 …; assay: cell-based or functional assay; remark: listed apart in the source
[10] = target: T1, human PCSK9 with a C-terminal …; assay: cell-based or functional assay
[11] = target: T1, human PCSK9 with a C-terminal …; assay: blocking ELISA, hPCSK9-mmH vs coated hLDLR EGFA-hFc
Description: (§3) Briefly, hLDLR EGFA-hFc was coated at 2 μg/mL in PBS on a 96-well microtiter plate overnight at 4° C. followed by blocking with a solution of 0.5% (w/v) BSA in PBS.
(§4) The equilibrated sample solutions were then transferred to a LDLR EGFA-hFc coated plate.

[12] = target: T1, human PCSK9 with a C-terminal …; assay: SPR (Biacore), 37 °C; antibody captured on anti-human Fc surface, hPCSK9-mmH injected (3.125-50 nM); association at pH 7.4, dissociation at pH 7.2
Description: (§5) A Biacore CM4 sensor chip was derivatized with a Fab′2 polyclonal anti-human Fc antibody to capture human antibodies. […] Dissociation (kd) rate constants were determined by processing and fitting the data using Scrubber version 2.0 curve fitting software. Dissociative half-lives (t_{1/2}) were calculated from the dissociation rate constants as: t_{1/2} (min)=(In2/kd)/60.

[13] = target: T1, human PCSK9 with a C-terminal …; assay: blocking ELISA pH 7.2, 500 pM hPCSK9-mmH vs coated hLDLR EGFA-hFc
Description: as §3, §4

[14] = target: T1, human PCSK9 with a C-terminal …; assay: SPR 25C pH 7.4, purified mAb captured
Description: as §2
All measurements were taken at 25° C.

[15] = target: T1, human PCSK9 with a C-terminal …; assay: cell-based or functional assay; remark: listed apart in the source
[16] = target: T1, human PCSK9 with a C-terminal …; assay: SPR 25C, purified mAb captured
Description: as §2
(§6) Also included in these experiments were several control/comparator antibodies. All measurements were taken at 25° C.

[17] = target: T1, human PCSK9 with a C-terminal …; assay: SPR (Biacore), 37 °C; antibody captured on anti-human Fc surface, hPCSK9-mmH injected (3.125-50 nM); association at pH 7.4, dissociation at pH 6.0
Description: as §5

[18] = target: T1, human PCSK9 with a C-terminal …; assay: blocking ELISA pH 5.75, 500 pM hPCSK9-mmH vs coated hLDLR EGFA-hFc
Description: as §3, §4

[19] = target: T1, human PCSK9 with a C-terminal …; assay: SPR 25C pH 6.0, purified mAb captured
Description: as §2, §6

[20] = target: T1, human PCSK9 with a C-terminal …; assay: SPR (Biacore), 37 °C; antibody captured on anti-human Fc surface, hPCSK9-mmH injected (3.125-50 nM); association at pH 7.4, dissociation at pH 7.4
Description: as §5

[21] = target: T1, human PCSK9 with a C-terminal …; assay: SPR (Biacore), 37 °C; antibody captured on anti-human Fc surface, hPCSK9-mmH injected (3.125-50 nM); association at pH 7.4, dissociation at pH 5.75
Description: as §5

[22] = target: T1, human PCSK9 with a C-terminal …; assay: SPR (Biacore), 37 °C; antibody captured on anti-human Fc surface, hPCSK9-mmH injected (3.125-50 nM); association at pH 7.4, dissociation at pH 6.0; remark: listed apart in the source
Description: (§7) All experiments were carried out at 37° C.
as §5

[23] = target: T1, human PCSK9 with a C-terminal …; assay: SPR (Biacore), 37 °C; antibody captured on anti-human Fc surface, hPCSK9-mmH injected (3.125-50 nM); association at pH 7.4, dissociation at pH 7.2; remark: listed apart in the source
Description: as §5

[24] = target: T1, human PCSK9 with a C-terminal …; assay: SPR (Biacore), 37 °C; antibody captured on anti-human Fc surface, hPCSK9-mmH injected (3.125-50 nM); association at pH 7.4, dissociation at pH 7.4; remark: listed apart in the source
Description: as §7, §5

[25] = target: T1, human PCSK9 with a C-terminal …; assay: SPR (Biacore), 37 °C; antibody captured on anti-human Fc surface, hPCSK9-mmH injected (3.125-50 nM); association at pH 7.4, dissociation at pH 5.75; remark: listed apart in the source
Description: as §7, §5

[26] = target: T1, human PCSK9 with a C-terminal …; assay: SPR 25C pH 7.2, mAb captured; pH 7.2, 25 C
Description: as §2

[27] = target: T1, human PCSK9 with a C-terminal …; assay: SPR 25C pH 7.2, mAb captured; pH 7.2 (neutral), 25 C
Description: as §2

| t½ [1] [min] | IC50, LDL uptake in HepG2 cells, 2 nM hPCSK9-D374Y-mmH [2] [nM] | IC50, LDL uptake in HepG2 cells, 50 nM MfPCSK9-mmH [3] [nM] | IC50 [4] [nM] | KD ratio pH 5.75/pH 7.2 [5] | t½ ratio pH 5.75/pH 7.2 [5] | IC50 [6] [nM] | Kd [7] [nM] | t½ [7] [min] | IC50 ratio (pH 5.75/pH 7.2) [11] | IC50 [13] [nM] | Kd [14] [nM] | koff [14] [s⁻¹] | kon [14] [M⁻¹ s⁻¹] | t½ [14] [min] | IC50, LDL uptake in HepG2 cells, 100 nM hPCSK9-mmH [15] [nM] | KD ratio pH 6.0/pH 7.4 [16] | ka ratio pH 6.0/pH 7.4 [16] | kd ratio pH 6.0/pH 7.4 [16] | t½ ratio pH 6.0/pH 7.4 [16] | Binder | also measured |
| --- | --- | --- | --- | --- | --- | --- | --- | --- | --- | --- | --- | --- | --- | --- | --- | --- | --- | --- | --- | --- | --- |
| 48 | 1.2 | 10 | 0.153 | 1.15 | 0.26 | 0.226 | 0.999 | 13 |  |  |  |  |  |  |  |  |  |  |  | Parental 300N (antibody, V domains shown, also called mAb 300N) VH: EMQLVESGGGLVQPGGSLRLSCAASGFTFSSHWMKWVRQAPGKGLEWVANINQDGSEKYYVDSVKGRFTISRDNAKNSLFLQMNSLRAEDTAVYYCARDIVLMVYDMDYYYYGMDVWGQGTTVTVSS VL: not shown | Kd [1]: 0.865 nM |
|  |  |  |  |  |  |  |  |  | 1.2 | 0.221 | 0.546 | 7.93e-05 | 145000 | 146 | 32 | 2.09 | 1.89 | 3.94 | 0.25 | 300N(v2) (antibody, IgG4, V domains shown) VH: EMQLVESGGGLVQPGGSLRLSCAASGFTFSSHWMKWVRQAPGKGLEWVANINQDGSEKYYVDSVKGRFTISRDNAKNSLFLQMNSLRAEDTAVYYCARDIVLMVYDMDYYYYGMDVWGQGTTVTVSS VL: not shown | IC50, LDL uptake in HepG2 cells, 2 nM hPCSK9-D374Y-mmH [8]: 2 nM; IC50, LDL uptake in HepG2 cells, 50 nM MfPCSK9-mmH [9]: 15.7 nM; IC50, LDL uptake in HepG2 cells, 50 nM hPCSK9-mmH [10]: 10.3 nM; t½ (dissociative half-life) [12]: 46.2 min; t½ (dissociative half-life) [17]: 7.1 min; IC50 [18]: 0.268 nM; Kd [19]: 1.14 nM; koff [19]: 0.000313 s⁻¹; kon [19]: 274000 M⁻¹ s⁻¹; t½ [19]: 36.9 min; t½ (dissociative half-life) [20]: 34.6 min; t½ (dissociative half-life) [21]: 7 min |
| 16 | 2.1 | 19.9 | 0.198 | 25.5 | 0.01 | 0.166 | 57.8 | 0.2 | 208 | 0.209 | 1.82 | 0.000293 | 161000 | 39.4 | 37 | 14.8 | 1.94 | 28.8 | 0.03 | VK-L30H (antibody, V domains shown, His variant of 300N) VH: EMQLVESGGGLVQPGGSLRLSCAASGFTFSSHWMKWVRQAPGKGLEWVANINQDGSEKYYVDSVKGRFTISRDNAKNSLFLQMNSLRAEDTAVYYCARDIVLMVYDMDYYYYGMDVWGQGTTVTVSS VL: not shown | IC50, LDL uptake in HepG2 cells, 2 nM hPCSK9-D374Y-mmH [8]: 3.3 nM; IC50, LDL uptake in HepG2 cells, 50 nM MfPCSK9-mmH [9]: 26.4 nM; IC50, LDL uptake in HepG2 cells, 50 nM hPCSK9-mmH [10]: 9 nM; Kd [1]: 2.27 nM; t½ (dissociative half-life) [22]: 0.4 min; t½ (dissociative half-life) [23]: 11.2 min; t½ (dissociative half-life) [24]: 10.6 min; IC50 [18]: 43.4 nM; t½ (dissociative half-life) [25]: 0.2 min; Kd [19]: 27 nM; koff [19]: 0.00845 s⁻¹; kon [19]: 313000 M⁻¹ s⁻¹; t½ [19]: 1.4 min |
| 35 | 2.7 | 12.7 | 0.395 | 4.34 | 0.1 | 0.349 | 9.59 | 3.4 | 5.5 | 0.319 | 1.06 | 8.98e-05 | 84700 | 129 | 32 | 6.64 | 1.26 | 8.35 | 0.12 | VH-D106H (antibody, V domains shown, His variant of 300N) VH: EMQLVESGGGLVQPGGSLRLSCAASGFTFSSHWMKWVRQAPGKGLEWVANINQDGSEKYYVDSVKGRFTISRDNAKNSLFLQMNSLRAEDTAVYYCARDIVLMVYHMDYYYYGMDVWGQGTTVTVSS VL: not shown | t½ (dissociative half-life) [22]: 3.5 min; t½ (dissociative half-life) [23]: 42 min; t½ (dissociative half-life) [24]: 36 min; IC50 [18]: 1.75 nM; t½ (dissociative half-life) [25]: 2.8 min; Kd [26]: 2.21 nM; Kd [19]: 7.04 nM; koff [19]: 0.00075 s⁻¹; kon [19]: 107000 M⁻¹ s⁻¹; t½ [19]: 15.4 min |
|  |  |  |  |  |  |  |  |  |  |  |  |  |  |  |  |  |  |  |  | VH-M114H (antibody, V domains shown, His variant of 300N) VH: EMQLVESGGGLVQPGGSLRLSCAASGFTFSSHWMKWVRQAPGKGLEWVANINQDGSEKYYVDSVKGRFTISRDNAKNSLFLQMNSLRAEDTAVYYCARDIVLMVYDMDYYYYGHDVWGQGTTVTVSS VL: not shown | Kd [27]: 386 nM; t½ [27]: 0 h |
